In PMC5427286, “Structural model of dodecameric heat-shock protein Hsp21: Flexible N-terminal arms interact with client proteins while C-terminal tails maintain the dodecamer and chaperone activity” (The Journal of Biological Chemistry, 2017):

How the values were obtained:
[1] = target: the molecule itself; experiment: cross-linking; BS3 at protein/cross-linker ratios of 1:10 and 1:60, protein 25-250 uM, read by denaturing SDS-PAGE
[2] = target: the molecule itself; experiment: SAXS; batch SAXS at 2.5, 5 and 10 mg/ml; ensemble optimization method (EOM) with pools of dimers, hexamers and dodecamers

B1: Hsp21, the 21-kDa chloroplast-localized small heat-shock protein of Arabidopsis thaliana (natural protein)
chain: not shown
notes: N-terminal peptide printed as 1MQDQR5, IXVXI motif 179IDVQI183, rigid bodies of residues 83-184. numbers count on: the mature protein; Dodecamer of two trimer-of-dimer discs; The deposited model lacks part of the NTR; also called Hsp21 WT; Hsp21WT; source: E. coli ER2566, purified (ammonium sulfate precipitation, SEC); copies: 12
stoichiometry N [1]: 12 | stoichiometry N [2]: 6
